Measured values taken from patent publication US20190338269.

Experiments:
plasma factor X = plasma factor X (UniProt P00742)
plasma factor X, sequence (P00742 whole entry, looked up): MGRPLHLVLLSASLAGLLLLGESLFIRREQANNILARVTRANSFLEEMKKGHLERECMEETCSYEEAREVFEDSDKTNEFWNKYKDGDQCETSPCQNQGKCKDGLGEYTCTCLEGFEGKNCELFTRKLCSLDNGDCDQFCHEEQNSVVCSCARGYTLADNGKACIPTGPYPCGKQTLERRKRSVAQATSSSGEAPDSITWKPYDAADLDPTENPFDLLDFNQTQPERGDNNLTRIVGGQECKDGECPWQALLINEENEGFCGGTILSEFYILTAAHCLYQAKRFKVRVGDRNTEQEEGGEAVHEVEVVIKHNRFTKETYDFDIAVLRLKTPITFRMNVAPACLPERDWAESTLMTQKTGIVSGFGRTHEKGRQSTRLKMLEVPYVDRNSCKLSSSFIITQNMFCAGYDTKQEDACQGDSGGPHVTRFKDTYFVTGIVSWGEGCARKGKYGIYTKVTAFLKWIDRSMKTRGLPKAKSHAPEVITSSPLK

plasma factor X, P00742, sequence (P00742 whole entry, looked up): as above

thrombin
appearance of FXa activity after incubation with thrombin (100 nM FX / 10 nM IIa, up to 8 h) (plasma factor X): did not result in the appearance of FXa activity

B1: factor VIIa/tissue factor (TF) complex (protein)
chain 1: ANAFLEELRPGSLERECKEEQCSFEEAREIFKDAERTKLFWISYSDGDQCASSPCQNGGSCKDQLQSYICFCLPAFEGRNCETHKDDQLICVNENGGCEQYCSDHTGTKRSCRCHEGYSLLADGVSCTPTVEYPCGKIPILEKRNASKPQGRIVGGKVCPKGECPWQVLLLVNGAQLCGGTLINTIWVVSAAHCFDKIKNWRNLIAVLGEHDLSEHDGDEQSRRVAQVIIPSTYVPGTTNHDIALLRLHQPVVLTDHVVPLCLPERTFSERTLAFVRFSLVSGWGQLLDRGATALELMVLNVPRLMTQDCLQQSRKVGDSPNITEYMFCAGYSDGSKDSCKGDSGGPHATHYRGTWYLTGIVSWGQGCATVGHFGVYTRVSQYIEWLQKLMRSEPRPGVLLRAPFP
chain 2: SGTTNTVAAYNLTWKSTNFKTILEWEPKPVNQVYTVQISTKSGDWKSKCFYTTDTECDLTDEIVKDVKQTYLARVFSYPAGNVESTGSAGEPLYENSPEFTPYLETNLGQPTIQSFEQVGTKVNVTVEDERTLVRRNNTFLSLRDVFGKDLIYTLYYWKSSSSGKKTAKTNTNEFLIDVDKGENYCFSVQAVIPSRTVNRKSTDSPVECMGQEKGEFREIFYIIGAVVFVVIILVIILAISLHKCRKAGVGQSWKENSPLNVS
FXa generated after incubation with FVIIa/TF (rate of hydrolysis of PNAPEP substrate) (plasma factor X, P00742): the already activated plasma FX and the plasma FX treated with the FVIIa/FT both gave a positive signal of the same order of magnitude
